What all share (assay): EMSA
The target in data set [1] is monoMYC (4) (synthetic) (UniProt P01106).
The target of data set [2] is DuoMYC (5) (synthetic) (UniProt P01106).
The target in data set [3] is DuoMYC (7) (synthetic) (UniProt P01106).

pKd: −log10 of the molar value.

Kd data for one sequence are collected here from article doi:10.1101/2024.03.04.583305.

For orientation: pKd means the Kd on a negative log10 scale, so that one unit is a factor of ten. Read a low pKd as a high Kd.

Chain of monoMYC (4) (synthetic) (P01106 365-423): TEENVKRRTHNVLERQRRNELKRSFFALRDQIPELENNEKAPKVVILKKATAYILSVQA
Chain of DuoMYC (5) (synthetic) (P01106 365-423): as above
Chain of DuoMYC (7) (synthetic) (P01106 whole entry): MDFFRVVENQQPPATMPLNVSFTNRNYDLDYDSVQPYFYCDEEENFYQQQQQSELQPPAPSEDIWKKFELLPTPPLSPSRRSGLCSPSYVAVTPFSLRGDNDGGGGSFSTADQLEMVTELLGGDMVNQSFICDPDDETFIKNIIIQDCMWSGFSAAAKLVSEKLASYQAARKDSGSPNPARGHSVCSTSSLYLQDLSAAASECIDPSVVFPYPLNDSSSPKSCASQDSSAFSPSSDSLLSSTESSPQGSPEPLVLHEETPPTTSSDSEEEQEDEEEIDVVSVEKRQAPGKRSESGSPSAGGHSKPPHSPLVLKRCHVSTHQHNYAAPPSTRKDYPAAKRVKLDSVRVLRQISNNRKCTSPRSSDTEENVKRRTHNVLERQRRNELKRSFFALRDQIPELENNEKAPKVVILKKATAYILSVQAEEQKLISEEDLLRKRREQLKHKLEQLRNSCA

Regarding “ACCCCACCACGTGGTGCCT (double strand) [E-Box DNA]”, the negative-log Kd (pKd) in data set [1] is 6.01; in data set [2], 6.93; in data set [3], 6.76.
